The text below walks through data of the RNAGym collection of RNA variant scans (doi:10.1093/nar/gkz1192).

B1: CPEB3 Ribozyme (parent)
chain: UAACAGGGGGCCACAGCAGAAGCGUUCACGUCGCAGCCCCUGUCAGAUUCUGGUGAAUCUGCGAAUUCUGCUGUAUAUCUC

The series covers variants of B1. Put plainly: self-cleavage, relative activity (ratio to wild type); higher = more cleavage; in vitro, sequencing. The method in brief: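 For each CPEB3 ribozyme variant, relative activity is its cleaved/total read fraction divided by the unmutated ribozyme's. Barcoded error-prone PCR libraries were transcribed by T7 RNA polymerase (5 hours, 37°C) and held in DNase I for 15 min before an EDTA stop, with cleavage occurring throughout. Template-switching reverse transcription and Illumina sequencing were used to read the RNAs. A 5-read minimum applied, and results are the mean of three batches.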
As for UAACAGGGGGCCACAGCAGAAGCGUUCAUGUCGCAGCCCCUGUCAGAUUCAGGUGAAUCUGCGAAUUCUGCUGUAUAUCUC [C29U U51A], the self-cleavage turned out to be 0.53.
Next, UAACAGGGGGCCACAGCAGAAGCGUUCAUGUCGCAGCCCCUGUCAGAUCCUGGUGAAUCUGCGAAUUCUGCUGUAUAUCUC [C29U U49C]: 0.39; UAACAGGGGGCCACAGCAGAAGCGUUCAUGUCGCAGCCCCUGUCAGAUACUGGUGAAUCUGCGAAUUCUGCUGUAUAUCUC [C29U U49A]: 0.16; UAACAGGGGGCCACAGCAGAAGCGUUCAGGUCGCAGCCCCUGUCAGAUUCUGGUGAAUCUGCGAAUUCUGCUGUAUACCUC [C29G U78C]: 0.21.
With UAACAGGGGGCCACAGCAGAAGCGUUCAUGUCGCAGCCCCUGGCAGAUUCUGGUGAAUCUGCGAAUUCUGCUGUAUAUCUC [C29U U43G], the self-cleavage was found to be 0.48.
Next, UAACAGGGGGCCACAGCAGAAGCGUUCAUGUCGCAGCCCCUGCCAGAUUCUGGUGAAUCUGCGAAUUCUGCUGUAUAUCUC [C29U U43C]: 0.31; UAACAGGGGGCCACAGCAGAAGCGUUCAUGUCGCAGCCCCUGACAGAUUCUGGUGAAUCUGCGAAUUCUGCUGUAUAUCUC [C29U U43A]: 0.53; UAACAGGGGGCCACAGCAGAAGCGUUCAUGUCGCAGCCGCUGUCAGAUUCUGGUGAAUCUGCGAAUUCUGCUGUAUAUCUC [C29U C39G]: 0.22.
Next, UAACAGGGGGCCACAGCAGAAGCGUUCAUGUCGCAGCCACUGUCAGAUUCUGGUGAAUCUGCGAAUUCUGCUGUAUAUCUC [C29U C39A]: 0.28; UAACAGGGGGCCACAGCAGAAGCGUUCAUGUCGCAGCCCCUGUCAGAUUCUUGUGAAUCUGCGAAUUCUGCUGUAUAUCUC [C29U G52U]: 0.39.
Next, UAACAGGGGGCCACAGCAGAAGCGUUCAUGUCGCAGCCCCUGUCAGAUUCUAGUGAAUCUGCGAAUUCUGCUGUAUAUCUC [C29U G52A]: 0.46; UAACAGGGGGCCACAGCAGAAGCGUUCAGGUCGCAGCCCCUGUCAGAUUCUGGUGAAUCUGCGAAUUCUGCCGUAUAUCUC [C29G U72C]: 0.26; UAACAGGGGGCCACAGCAGAAGCGUUCAUGUCGCAGCCCCUGUCAGACUCUGGUGAAUCUGCGAAUUCUGCUGUAUAUCUC [C29U U48C]: 0.25.
With UAACAGGGGGCCACAGCAGAAGCGUUCAGGUCGCAGCCCCUGUCAGAUUCUGGUGAACCUGCGAAUUCUGCUGUAUAUCUC [C29G U58C], the self-cleavage amounted to 0.52.
UAACAGGGGGCCACAGCAGAAGCGUUCAUUUCGCAGCCCCUGUCAGAUUCUGGUGAAUCUGCGAAUUCUGCUGUAUAUCUC [C29U G30U]: the self-cleavage came to 0.23.
Regarding UAACAGGGGGCCACAGCAGAAGCGUUCAUGUUGCAGCCCCUGUCAGAUUCUGGUGAAUCUGCGAAUUCUGCUGUAUAUCUC [C29U C32U], the self-cleavage worked out at 0.51.
In the case of UAACAGGGGGCCACAGCAGAAGCGUUCAUGUCGCAGCCCCAGUCAGAUUCUGGUGAAUCUGCGAAUUCUGCUGUAUAUCUC [C29U U41A] it was 0.43; in that of UAACAGGGGGCCACAGCAGAAGCGUUCAUGUCGCAGCCCCGGUCAGAUUCUGGUGAAUCUGCGAAUUCUGCUGUAUAUCUC [C29U U41G], 0.26.
In the case of UAACAGGGGGCCACAGCAGAAGCGUUCAUGUCGCAGCCCCCGUCAGAUUCUGGUGAAUCUGCGAAUUCUGCUGUAUAUCUC [C29U U41C] it was 0.49; in that of UAACAGGGGGCCACAGCAGAAGCGUUCAUGUCGCAGUCCCUGUCAGAUUCUGGUGAAUCUGCGAAUUCUGCUGUAUAUCUC [C29U C37U], 0.34; in that of UAACAGGGGGCCACAGCAGAAGCGUUCAUGUCGCAGCCCCUGUAAGAUUCUGGUGAAUCUGCGAAUUCUGCUGUAUAUCUC [C29U C44A], 0.14.
With UAACAGGGGGCCACAGCAGAAGCGUUCAUGUCGCCGCCCCUGUCAGAUUCUGGUGAAUCUGCGAAUUCUGCUGUAUAUCUC [C29U A35C], the self-cleavage worked out at 0.25.
In the case of UAACAGGGGGCCACAGCAGAAGCGUUCAUGUCGCGGCCCCUGUCAGAUUCUGGUGAAUCUGCGAAUUCUGCUGUAUAUCUC [C29U A35G] it was 1.16.
Take UAACAGGGGGCCACAGCAGAAGCGUUCAUGUCGCUGCCCCUGUCAGAUUCUGGUGAAUCUGCGAAUUCUGCUGUAUAUCUC [C29U A35U]: the self-cleavage was 0.22.
With UAACAGGGGGCCACAGCAGAAGCGUUCAUGUCGCAGCCCCUGUCAGAUUCUGGUGAAUCUGCGAAUUCUGCUGUAUAUAUC [C29U C79A], the self-cleavage stood at 0.7.
Take UAACAGGGGGCCACAGCAGAAGCGUUCAUGUCGCAGCCCCUGUCAGAUUCUGGUGAAUCUGCGAAUUCUGCUGUAUAUGUC [C29U C79G]: the self-cleavage was 0.68.
Next, UAACAGGGGGCCACAGCAGAAGCGUUCAUGUCGCAGCCCCUGUCAGAUUCUGGUGAAUCUGCGAAUUCUGCUGUAUAUUUC [C29U C79U]: 0.38.
As to UAACAGGGGGCCACAGCAGAAGCGUUCAUGUCGCAGCCCUUGUCAGAUUCUGGUGAAUCUGCGAAUUCUGCUGUAUAUCUC [C29U C40U], the self-cleavage worked out at 0.51.
In the case of UAACAGGGGGCCACAGCAGAAGCGUUCAUGUCGCAGCCCCUGUCAGGUUCUGGUGAAUCUGCGAAUUCUGCUGUAUAUCUC [C29U A47G] it was 0.55; in that of UAACAGGGGGCCACAGCAGAAGCGUUCAUGUCGCAGCCCCUGUCAGUUUCUGGUGAAUCUGCGAAUUCUGCUGUAUAUCUC [C29U A47U], 0.24; in that of UAACAGGGGGCCACAGCAGAAGCGUUCAGGUCGCAGCCCCUGUCAGAUUCUGGUGAAUCUGCGAAUCCUGCUGUAUAUCUC [C29G U67C], 0.12.
With UAACAGGGGGCCACAGCAGAAGCGUUCAUGUCGCAGCCCCUGUCAGAUUCUGGUGAAUCUGCGAAUUCUGCUGUAUUUCUC [C29U A77U], the self-cleavage turned out to be 0.49.
Consider UAACAGGGGGCCACAGCAGAAGCGUUCAUGUCGCAGCCCCUGUCAGAUUCUGGUGAAUCUGCGAAUUCUGCUGUAUGUCUC [C29U A77G], for which the self-cleavage was 0.61.
With UAACAGGGGGCCACAGCAGAAGCGUUCAUGUCGCAGCCCCUGUCAGAUUCUGGUGAAUCUGCGAAUUCUGCUGUAUCUCUC [C29U A77C], the self-cleavage turned out to be 0.5.
